From patent US20250000946A1 (WUXI BIOLOGICS IRELAND, published 2025)
Like-named read-outs stand apart in the source and are kept apart here.

What was measured:
[1] = target: T1, Human IL-2Rβ/γ (intermediate affinity IL-2 receptor) (human, UniProt P14784 27-551; P31785 23-369); experiment: FACS, HH cells; EC50 fold vs T2U0.E44-1
T1 construct: whole, on cells; also called IL-2Rβ/γc; IL-2Rβ (CD122) and γ (CD132)
T1 sequence (looked up) 1: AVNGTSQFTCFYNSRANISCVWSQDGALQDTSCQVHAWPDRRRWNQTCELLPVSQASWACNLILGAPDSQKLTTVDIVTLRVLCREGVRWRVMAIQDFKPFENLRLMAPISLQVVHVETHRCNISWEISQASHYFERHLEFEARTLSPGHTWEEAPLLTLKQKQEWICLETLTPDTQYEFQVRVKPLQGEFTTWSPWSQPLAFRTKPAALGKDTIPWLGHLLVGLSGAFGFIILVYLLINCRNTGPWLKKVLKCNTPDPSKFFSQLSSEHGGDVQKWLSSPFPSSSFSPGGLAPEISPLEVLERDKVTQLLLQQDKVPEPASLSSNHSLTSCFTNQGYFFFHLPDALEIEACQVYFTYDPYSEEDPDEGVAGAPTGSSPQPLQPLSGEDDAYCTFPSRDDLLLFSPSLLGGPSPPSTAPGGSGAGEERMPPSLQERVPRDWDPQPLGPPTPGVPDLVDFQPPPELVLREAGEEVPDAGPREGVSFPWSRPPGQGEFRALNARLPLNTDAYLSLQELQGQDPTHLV
T1 sequence (looked up) 2: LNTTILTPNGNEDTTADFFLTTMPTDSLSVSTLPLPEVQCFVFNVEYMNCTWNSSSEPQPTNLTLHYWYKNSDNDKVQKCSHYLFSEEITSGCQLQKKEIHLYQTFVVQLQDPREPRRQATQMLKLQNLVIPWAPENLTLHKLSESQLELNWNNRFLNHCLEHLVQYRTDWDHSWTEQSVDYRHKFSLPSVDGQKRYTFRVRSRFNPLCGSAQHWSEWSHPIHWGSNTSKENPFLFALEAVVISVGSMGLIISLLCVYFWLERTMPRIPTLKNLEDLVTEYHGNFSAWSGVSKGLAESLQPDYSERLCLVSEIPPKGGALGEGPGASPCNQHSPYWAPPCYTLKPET
How it was run: (§1)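 Cells: HH (IL-2Rβ/γ), NK92 and MJ20 (IL-2Rα/β/γ). 30 min 4° C. with IL-2/Fc at indicated concentrations; PE-anti-human Fc 30 min 4° C.; FACS MFI.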

[2] = target: T1, Human IL-2Rβ/γ (intermediate affinity …); experiment: FACS, HH cells; EC50 fold vs T2U0.E44-1; remark: listed apart in the source
Protocol: (§2) Human cutaneous T cell lymphoma HH cells, malignant non-Hodgkin's lymphoma NK92 cells and cutaneous T cell lymphoma MJ20 cells were used for binding assay. They both constitutively express IL-2Rβ (CD122) and […] (CD132), and NK92 and MJ20 also expresses IL-2Rα (CD25). HH, NK92 and MJ20 cells were cultured following ATCC guidance, then transferred to a 96-plate for binding analysis. Cells were incubated with IL-2/Fc fusion proteins at the indicated concentrations for 30 min at 4° C. to avoid internalization. Binding was detected by 2nd antibody of PE-anti-human Fc at 4° C. for another 30 min. The median fluorescence intensity (MFI) on HH and NK92 cells was measured using FACS.

[3] = target: T1, Human IL-2Rβ/γ (intermediate affinity …); experiment: FACS, HH cells
Protocol: as §2

[4] = target: T1, Human IL-2Rβ/γ (intermediate affinity …); experiment: cell-based or functional assay
[5] = target: T2, Human IL-2Rα/β/γ complex (high affinity IL-2 receptor) (human, UniProt P01589 22-272; P14784 27-551; P31785 23-369); experiment: cell-based or functional assay
T2 sequence (looked up) 1: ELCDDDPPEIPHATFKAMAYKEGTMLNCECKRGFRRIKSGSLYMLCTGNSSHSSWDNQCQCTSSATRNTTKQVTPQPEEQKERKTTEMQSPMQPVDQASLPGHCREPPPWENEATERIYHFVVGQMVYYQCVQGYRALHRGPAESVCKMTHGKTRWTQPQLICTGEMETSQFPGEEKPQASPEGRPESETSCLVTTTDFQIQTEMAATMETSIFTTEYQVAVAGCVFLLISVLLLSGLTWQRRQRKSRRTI
T2 sequence (looked up) 2: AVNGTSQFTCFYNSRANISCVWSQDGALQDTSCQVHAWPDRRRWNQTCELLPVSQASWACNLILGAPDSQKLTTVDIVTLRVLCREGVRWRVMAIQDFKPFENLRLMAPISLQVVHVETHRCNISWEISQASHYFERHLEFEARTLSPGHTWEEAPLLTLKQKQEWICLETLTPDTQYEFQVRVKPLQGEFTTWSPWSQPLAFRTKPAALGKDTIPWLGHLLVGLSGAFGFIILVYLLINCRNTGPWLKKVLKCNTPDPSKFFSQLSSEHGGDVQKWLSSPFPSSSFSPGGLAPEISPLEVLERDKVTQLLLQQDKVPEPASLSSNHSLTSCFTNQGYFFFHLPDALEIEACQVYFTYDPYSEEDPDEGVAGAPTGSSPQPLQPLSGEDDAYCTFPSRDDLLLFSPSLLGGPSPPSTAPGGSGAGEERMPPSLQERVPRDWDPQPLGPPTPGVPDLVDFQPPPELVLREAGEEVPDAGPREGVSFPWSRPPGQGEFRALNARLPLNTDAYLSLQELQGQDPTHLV
T2 sequence (looked up) 3: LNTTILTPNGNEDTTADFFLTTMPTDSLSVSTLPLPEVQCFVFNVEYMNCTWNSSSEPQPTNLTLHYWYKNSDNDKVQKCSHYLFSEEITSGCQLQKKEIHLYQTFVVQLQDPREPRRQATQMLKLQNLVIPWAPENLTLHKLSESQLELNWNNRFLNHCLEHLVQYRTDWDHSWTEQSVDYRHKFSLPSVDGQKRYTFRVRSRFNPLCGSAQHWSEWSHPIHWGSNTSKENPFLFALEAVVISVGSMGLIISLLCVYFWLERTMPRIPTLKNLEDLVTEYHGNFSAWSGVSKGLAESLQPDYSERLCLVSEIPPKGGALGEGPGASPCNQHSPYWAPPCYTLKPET

[6] = target: T1, Human IL-2Rβ/γ (intermediate affinity …); experiment: cell-based or functional assay; remark: listed apart in the source
[7] = target: T2, Human IL-2Rα/β/γ complex (high affinity …); experiment: cell-based or functional assay; remark: listed apart in the source
[8] = target: T2, Human IL-2Rα/β/γ complex (high affinity …); experiment: FACS, NK92 cells
How it was run: as §1

[9] = target: T2, Human IL-2Rα/β/γ complex (high affinity …); experiment: FACS, NK92 cells; EC50 fold vs T2U0.E44-1
How it was run: as §1

[10] = target: T1, Human IL-2Rβ/γ (intermediate affinity …); experiment: FACS, HH cells; remark: listed apart in the source
How it was run: as §1

[11] = target: T3, W3XX115-T2U0.E44-6.uIgG4V322 (human, UniProt P60568 21-149); experiment: SPR Biacore 8K; variant captured via anti-human Fc, IL-2Rα ECD-His injected; steady state
T3 construct: IL-2 del STLT; E44 format, IgG4 FALA; IL-2 part tied by the design 'Del STLT'; not shown: IgG4 hinge-Fc with FALA (uIgG4V322), no linker
Protocol: IL-2 variants binding affinity to IL-2 receptor were detected by SPR using Biacore 8K. For IL-2Rα binding assay, each variant was captured on anti-human Fc immobilized CM5 sensor chip (cytiva). W3XX115-hPro1.ECD.His at different concentrations were injected over the sensor chip at a flow rate of 30 uL/min for an association phase of 60 s, followed by 90 s dissociation. The chip was then regenerated by 10 mM Glycine-HCl pH1.5 after each binding cycle. For IL-2Rγ binding assay, IL-2 variants were mixed with W369-hPro2.ECD.His as 1:1 before assay, were detected by SPR using Biacore 8K. W3XX115-hPro1.ECD.His was captured on anti-His immobilized CM5 sensor chip (cytiva). The mixture were injected over the sensor chip as described above. The sensorgrams of blank surface and buffer channel were subtracted from the test sensorgrams. The experimental data was fitted by steady state affinity model. Molecular weight of W3XX115-hPro1.ECD.His or W369-hPro1.ECD.His was used to calculate the molar concentration of analyte.
For T3U0.E44-1 and T2U0.E44-33, no binding to IL-2Rα was detected.

[12] = target: T3, W3XX115-T2U0.E44-6.uIgG4V322; experiment: SPR (Biacore 8K): variant pre-mixed 1:1 with human IL-2Rβ ECD (W369-hPro2.ECD.His), injected over immobilised human IL-2Rγc [panel 2 of the upper row]
[13] = target: T3, W3XX115-T2U0.E44-6.uIgG4V322; experiment: SPR Biacore 8K; set-up for IL-2Rβ not described

B1: W3XX115-T3U0.E44-1.uIgG4V1 (Fc fusion)
chain: APTSSSTKKTQLQLEHLLLDLQMILNGINNYKNPKLTRMLTAKFAMPKKATELKHLQCLEEELKPLEEVLNGAQSKNFHLRPRDLISNINVIVLELKGSETTFMCEYADETATIVEFLNRWITFCQSIISTLTESKYGPPCPPCPAPEFLGGPSVFLFPPKPKDTLMISRTPEVTCVVVDVSQEDPEVQFNWYVDGVEVHNAKTKPREEQFNSTYRVVSVLTVLHQDWLNGKEYKCKVSNKGLPSSIEKTISKAKGQPREPQVYTLPPCQEEMTKNQVSLWCLVKGFYPSDIAVEWESNGQPENNYKTTPPVLDSDGSFFLYSRLTVDKSRWQEGNVFSCSVMHEALHNHYTQKSLSLSLG
heavy: EIQLQQSGPELVKPGASVKVSCKASGYSFTDYNMYWVKQSHGESLEWIGYIDPYNGGTRYNQKFKGKATLTVDKSSSTAFMHLNSLTSEDSAVYYCARNGHWDGAWFAYWGQGTLVTVSAASTKGPSVFPLAPCSRSTSESTAALGCLVKDYFPEPVTVSWNSGALTSGVHTFPAVLQSSGLYSLSSVVTVPSSSLGTKTYTCNVDHKPSNTKVDKRVESKYGPPCPPCPAPEFLGGPSVFLFPPKPKDTLMISRTPEVTCVVVDVSQEDPEVQFNWYVDGVEVHNAKTKPREEQFNSTYRVVSVLTVLHQDWLNGKEYKCKVSNKGLPSSIEKTISKAKGQPREPQVCTLPPSQEEMTKNQVSLSCAVKGFYPSDIAVEWESNGQPENNYKTTPPVLDSDGSFFLVSRLTVDKSRWQEGNVFSCSVMHEALHNHYTQKSLSLSLG
light: DIQMNQSPSSLSASLGDTITITCHASQNINVWLSWYQQKPGNIPKLLIYKASNLHTGVPSRFSGSRSGTGFTLTISSLQPEDIATYYCHQGQSYPFTFGSGTKLEIKRTVAAPSVFIFPPSDEQLKSGTASVVCLLNNFYPREAKVQWKVDNALQSGNSQESVTEQDSKDSTYSLSSTLTLSKADYEKHKVYACEVTHQGLSSPVTKSFNRGEC
notes: E44 format, IgG4
[1]
  Affinity reduction: 1 fold
[2]
  Affinity reduction: 1 fold
[3]
  EC50: 24.5 nM
[4]
  Potency in human CD8+ T EC50: 7.53 nM
  Potency reduction (CD8+ T): 0.74 fold
[5]
  Potency in human Treg EC50: 2.48 nM
  Potency reduction (Treg): 652 fold
[6]
  Human CD8+ T Potency EC50 (STAT5 phosphorylation): 7.14 nM
  Human CD8+ T Potency reduction: 0.69 fold
[7]
  Human Treg Potency EC50 (STAT5 phosphorylation): 3.52 nM
  Human Treg Potency reduction: 296 fold
[8]
  EC50: 145 nM
[9]
  Affinity reduction: 20.7 fold
[10]
  EC50: 72.9 nM

B2: W3XX115-hPro1.ECD.His, IL2Rα ECD (receptor)
chain: ELCDDDPPEIPHATFKAMAYKEGTMLNCECKRGFRRIKSGSLYMLCTGNSSHSSWDNQCQCTSSATRNTTKQVTPQPEEQKERKTTEMQSPMQPVDQASLPGHCREPPPWENEATERIYHFVVGQMVYYQCVQGYRALHRGPAESVCKMTHGKTRWTQPQLICTGEMETSQFPGEEKPQASPEGRPESETSCHHHHHH
notes: Entry includes the C-terminal 6xHis tag; also called CD25
[11]
  Kd: 98.2 nM

B3: W369-hPro1.ECD.His, IL-2Rγ ECD (receptor)
chain: LNTTILTPNGNEDTTADFFLTTMPTDSLSVSTLPLPEVQCFVFNVEYMNCTWNSSSEPQPTNLTLHYWYKNSDNDKVQKCSHYLFSEEITSGCQLQKKEIHLYQTFVVQLQDPREPRRQATQMLKLQNLVIPWAPENLTLHKLSESQLELNWNNRFLNHCLEHLVQYRTDWDHSWTEQSVDYRHKFSLPSVDGQKRYTFRVRSRFNPLCGSAQHWSEWSHPIHWGSNTSKENLEGGGGSGGGGHHHHHH
notes: Entry includes linker and C-terminal 6xHis tag; also called IL-2Rγc; CD132
[12]
  binding result: binds

B4: W369-hPro2.ECD.His, IL2Rβ ECD (receptor)
chain: AVNGTSQFTCFYNSRANISCVWSQDGALQDTSCQVHAWPDRRRWNQTCELLPVSQASWACNLILGAPDSQKLTTVDIVTLRVLCREGVRWRVMAIQDFKPFENLRLMAPISLQVVHVETHRCNISWEISQASHYFERHLEFEARTLSPGHTWEEAPLLTLKQKQEWICLETLTPDTQYEFQVRVKPLQGEFTTWSPWSQPLAFRTKPAALGKDLEGGGGSGGGGHHHHHH
notes: Entry includes linker and C-terminal 6xHis tag; also called CD122
[13]
  Kd: 1010 nM
